Test [1] addresses T1, recombinant CHO TEM-1 Fc fusion protein (UniProt Q9HCU0).
T1 sequence (looked up): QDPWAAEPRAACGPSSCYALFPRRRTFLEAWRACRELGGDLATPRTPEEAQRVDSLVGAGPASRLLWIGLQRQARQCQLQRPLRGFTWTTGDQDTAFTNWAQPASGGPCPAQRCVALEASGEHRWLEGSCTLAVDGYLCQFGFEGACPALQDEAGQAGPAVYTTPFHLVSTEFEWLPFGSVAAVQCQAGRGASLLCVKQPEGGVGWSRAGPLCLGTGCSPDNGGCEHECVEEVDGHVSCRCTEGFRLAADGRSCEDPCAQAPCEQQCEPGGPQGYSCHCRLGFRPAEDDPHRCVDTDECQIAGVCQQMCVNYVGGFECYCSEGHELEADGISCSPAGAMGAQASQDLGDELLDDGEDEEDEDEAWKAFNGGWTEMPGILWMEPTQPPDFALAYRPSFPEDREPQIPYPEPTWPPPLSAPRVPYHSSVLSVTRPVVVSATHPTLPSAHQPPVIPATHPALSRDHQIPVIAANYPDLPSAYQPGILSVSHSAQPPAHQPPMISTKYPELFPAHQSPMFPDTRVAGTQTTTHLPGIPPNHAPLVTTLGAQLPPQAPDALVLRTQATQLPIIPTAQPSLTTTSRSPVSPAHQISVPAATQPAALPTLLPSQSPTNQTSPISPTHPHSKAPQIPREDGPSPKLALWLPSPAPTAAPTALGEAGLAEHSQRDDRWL
The test can be described thus: ECL sandwich, competition: biotin-9G5 capture, sulfo-TAG-15F8 detection; MORAb-004 spike 3.125 µg/mL, TEM-1-Fc QC 2 ng/mL; recovery at 0 µg/mL MORAb-004: 106.

Test [2] concerns the target T1, recombinant CHO TEM-1 Fc fusion protein. The test can be described thus: ECL sandwich, competition: biotin-9G5 capture, sulfo-TAG-15F8 detection; MORAb-004 spike 1.5625 µg/mL, TEM-1-Fc QC 0.08 ng/mL; recovery at 0 µg/mL MORAb-004: 114.
Test [3] has the same target. Description: ECL sandwich, competition: biotin-9G5 capture, sulfo-TAG-15F8 detection; MORAb-004 spike 25 µg/mL, TEM-1-Fc QC 0.08 ng/mL; recovery at 0 µg/mL MORAb-004: 114.
Test [4] has the same target. Description: ECL sandwich, competition: biotin-9G5 capture, sulfo-TAG-15F8 detection; MORAb-004 spike 3.125 µg/mL, TEM-1-Fc QC 10 ng/mL; recovery at 0 µg/mL MORAb-004: 105.
The target is the same in test [5]. The test can be described thus: ECL sandwich, competition: biotin-9G5 capture, sulfo-TAG-15F8 detection; MORAb-004 spike 50 µg/mL, TEM-1-Fc QC 0.08 ng/mL; recovery at 0 µg/mL MORAb-004: 114.
Test [6] has the same target. Description: ECL sandwich, competition: biotin-9G5 capture, sulfo-TAG-15F8 detection; MORAb-004 spike 50 µg/mL, TEM-1-Fc QC 50 ng/mL; recovery at 0 µg/mL MORAb-004: 104.
Test [7] has the same target. The test can be described thus: ECL sandwich, competition: biotin-9G5 capture, sulfo-TAG-15F8 detection; MORAb-004 spike 1.5625 µg/mL, TEM-1-Fc QC 50 ng/mL; recovery at 0 µg/mL MORAb-004: 104.
Test [8] shares this target. Description: ECL sandwich, competition: biotin-9G5 capture, sulfo-TAG-15F8 detection; MORAb-004 spike 1.5625 µg/mL, TEM-1-Fc QC 2 ng/mL; recovery at 0 µg/mL MORAb-004: 106.
For test [9] the target is unchanged. Description: ECL sandwich, competition: biotin-9G5 capture, sulfo-TAG-15F8 detection; MORAb-004 spike 12.5 µg/mL, TEM-1-Fc QC 10 ng/mL; recovery at 0 µg/mL MORAb-004: 105.
Test [10] has the same target. The test can be described thus: ECL sandwich, competition: biotin-9G5 capture, sulfo-TAG-15F8 detection; MORAb-004 spike 0.78125 µg/mL, TEM-1-Fc QC 10 ng/mL; recovery at 0 µg/mL MORAb-004: 105.

B1: MORAb-004 (antibody, INN chains, looked up, V domains shown)
VH: QVQLQESGPGLVRPSQTLSLTCTASGYTFTDYVIHWVKQPPGRGLEWIGYINPYDDDTTYNQKFKGRVTMLVDTSSNTAYLRLSSVTAEDTAVYYCARRGNSYDGYFDYSMDYWGSGTPVTVSS
VL: DIQMTQSPSSLSASVGDRVTITCRASQNVGTAVAWLQQTPGKAPKLLIYSASNRYTGVPSRFSGSGSGTDYTFTISSLQPEDIATYYCQQYTNYPMYTFGQGTKVQIK
Turning to B1, the % Recovery of TEM-1 QCs spiked with MORAb-004 in test [1] worked out at 96%; in test [2], 103%; in [3], 96%; in [4] it was 95.8%; in [5], 94.1%; in test [6], 93.1%. In addition, the % Recovery of TEM-1 QCs spiked with MORAb-004 in test [7] is 98.9%; in test [8], 98.9%; in test [9], 91.2%; in test [10], 100%.

(Values after patent publication US20150337051A1 (MORPHOTEK, published 2015).)
